Measurements as given in the supplement of paper PMC9170038.

Tested on: MS2 coat protein
Assay: apparent KD of MS2 coat protein; designed switch direction (-1 OFF switch, 1 ON switch): -1; higher = weaker reporter binding
Summary of the method: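 The apparent KD reported per design is the median over clusters of curve fits to normalised cluster fluorescence. The RNA switches were transcribed on Illumina chips by stalled E. coli RNA polymerase. SNAP-549-labelled MS2 coat protein was titrated from 0.7 or 1.5 nM, doubling up to 3 µM, in Tris-HCl pH 7.5 buffer containing KCl, MgCl2, BSA, DTT, tRNA and Tween-20, with no input, 200 uM small-molecule ligand, or an oligonucleotide input.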

[1] = input ligand: microRNA oligo, concentration not stated
[2] = Eterna round: R95, input ligand: FMN 200 uM
[3] = Eterna round: R95, input ligand: microRNA oligo, concentration not stated
[4] = Eterna round: R95, input ligand: none

Sequence	apparent KD of MS2 coat protein (input ligand: FMN 200 uM)	apparent KD of MS2 coat protein (input ligand: none)	apparent KD of MS2 coat protein [3]	other results
UCACGUACAGGAUAUACAUGAGGAUCACCCAUGUGCUCGAAGGCACGCCCGAGAUUCUGUAGAAGGGUAUAGCA [Eternabot (L1) Solution 50] (Eterna round: R97, puzzle: Exclusion 3)	0.0384 µM	0.0325 µM		
UACAUGAGGAUCACCCAUGUUUUGUCGUGUAUGGUAUUUAUCUAGGAUAUCAAUUGGUUUAUUUAUGAGAAGGAGAAUAUUAAU [JMF's solution 57] (Eterna round: R96, puzzle: Exclusion NG 3)	0.0361 µM	0.0333 µM		apparent KD of MS2 coat protein [1]: 0.0316 µM
GUUAACGCAGGAUAUUAGUACAUGUACAUGAGGAUCACCCAUGUUUAUUGGGUCUAAGAAUAAGAAGGGCGAUGAA [JR_Ex5_Sub006] (Eterna round: R97, puzzle: Exclusion 5)	0.402 µM	0.631 µM		
GGGAUGUCAGGAUAUCCGAAAGUCUACCAAUACGGCAGACAGGAGAAGGGACAUGAGGAUCACCCAUGUAAAGA [Quatma] (puzzle: Exclusion 4)			0.0367 µM	apparent KD of MS2 coat protein [2]: 0.114 µM; apparent KD of MS2 coat protein [4]: 0.0524 µM
UGUGCGUAUGUGAGGAUAUGCUGGUCCUUGGAUCAGCAGAAGGCACAUGAGGAUCACCCAUGUGGUGUCGUACU [salish99_Bmod_Ex4_009] (puzzle: Brourd's mod of Exclusion 4)			0.202 µM	
CAUAAUUUUCGGAAUAUGUACAUGAGGAUCACCCAUGUGACGAGUUACAUGAUUAACAAGCUUUUUGCUCGUCUUAU [Sensor v3 - Turn-off variant 1 - 12] (puzzle: Sensor v3, turn-off variant 1)			0.0319 µM	apparent KD of MS2 coat protein [2]: 0.118 µM; apparent KD of MS2 coat protein [4]: 0.207 µM
CUUGUACAUGAGGAUCACCCAUGUUAGGAUAUCUCGCCGUCGGCUUGCCGACGGUAUUAGAGAAGGGACAAGGG [JL Tixe mod 7] (puzzle: Exclusion 1)			0.0186 µM	
UUCGUGUAAGGAUAUACGACUCAUCCCAAUGGGACGAGCACGUAGAAGGUACAUGAGGAUCACCCAUGUGCUCC [Eddianle] (Eterna round: R96, puzzle: Exclusion 4)	0.284 µM	0.0399 µM		apparent KD of MS2 coat protein [1]: 0.0333 µM
CGUCUGUCAGGAUAUACUUACGUAGACAUGAGGAUCACCCAUGUGACGUGGGACUAGUGAGUAGAAGGGACGAACA [EX5 #74] (Eterna round: R97, puzzle: Exclusion 5)	0.0684 µM	0.0467 µM		
AGUAACUAUCACGAAAGUGAUAGUUACAACAAGUGAUAAACAUGAGGAUCACCCAUGUCCUCAUUUGCUCGUCUUAU [Sensor 3 - 9] (puzzle: Sensor v3, turn-off variant 2)			0.283 µM	apparent KD of MS2 coat protein [2]: 0.256 µM; apparent KD of MS2 coat protein [4]: 0.326 µM
UAGUAAAAGGUGAGGAUAUCCGCAAUAAAACGUGAGGAGAAGGCACAUGAGGAUCACCCAUGUAGGGUAUCAAA [BmEX4 A.17] (Eterna round: R97, puzzle: Brourd's mod of Exclusion 4)	0.421 µM	0.45 µM		
CCGGAAAUACAGGAUAUAGGAGUCGAUAGACUCCUAGAAGGGUAUACAUGAGGAUCACCCAUGUUCCUUACCGG [Fiskers Ex 6 - 72] (puzzle: Exclusion 6)			0.0369 µM	
UUUUACGCAGGAUAUACAUUUUUUUUAUUAUCCUCAUUAUUACAUGAGGAUCACCCAUGUAGAAGGGCGAUUUU [My Design] (puzzle: Exclusion 2)			0.0388 µM	
GCUGGACGAGGAUAUGCAUUCGUGCUUCGGCACGUAAGGUCACAUGAGGAUCACCCAUGUAGAAGGUGUCCAGC [E2/6-B2] (Eterna round: R97, puzzle: Exclusion 2)	0.0241 µM	0.0184 µM		
AUCCUUAACAAGGAUAUCGGGCGGGAAAUUGUUUGAGAAGGUGUAACAUGAGGAUCACCCAUGUAAAAUAUGAA [-14.9, -13.5 kcal, A 36%] (Eterna round: R97, puzzle: Exclusion 6)	0.0217 µM	0.0312 µM		
